According to doi:10.1101/2021.09.03.458554 (bioRxiv, 2021):

T1: hGid4 (Δ1-115) (human, UniProt Q8IVV7 116-300)
T1 sequence: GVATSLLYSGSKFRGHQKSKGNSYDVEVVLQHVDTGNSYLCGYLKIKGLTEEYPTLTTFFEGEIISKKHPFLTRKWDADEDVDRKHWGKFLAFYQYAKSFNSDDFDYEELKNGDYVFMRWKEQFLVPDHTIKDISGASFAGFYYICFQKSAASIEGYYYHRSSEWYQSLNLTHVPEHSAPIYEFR

T2: yGid10 (Δ1-64, Δ285-292) (S. cerevisiae, UniProt P53242 65-284)
T2 sequence: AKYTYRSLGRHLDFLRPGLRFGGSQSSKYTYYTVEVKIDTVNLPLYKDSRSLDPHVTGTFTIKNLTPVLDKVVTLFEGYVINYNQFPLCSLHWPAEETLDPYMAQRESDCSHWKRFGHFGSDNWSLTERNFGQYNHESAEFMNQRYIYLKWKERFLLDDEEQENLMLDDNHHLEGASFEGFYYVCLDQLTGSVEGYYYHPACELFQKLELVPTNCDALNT


Legend:
hGid4 (Δ1-115) = target: T1, hGid4 (Δ1-115); test: fluorescence polarisation
yGid10 (Δ1-64, Δ285-292) = target: T2, yGid10 (Δ1-64, Δ285-292); test: crystal structure

| Binder | binding result (hGid4 (Δ1-115)) | binding result (yGid10 (Δ1-64, Δ285-292)) |
| --- | --- | --- |
| GVATSLLW [GVATSLLW peptide (hGid4 residues 116-122)] | binds |  |
| FWLPANLW [FWLPANLW peptide] |  | binds |
